Measured values taken from the supplement of paper PMC6757056.
± gives the standard deviation of the averaged measurements.

B1: library; a variant is named by its letters at N, in order (parent)
chain: GCUGUCACCGGUGUAUUACCCUAGUGGUCGACCGGUCUGAUGAGUCUNNNNNNAGACGAAACAGC

What was measured:
hypoxanthine [1] = variants of: B1; experiment: FACS-Seq fitted mean relative fluorescence mCherry/BFP without ligand (log10 relative fluorescence); ligand: hypoxanthine (xanthine aptamer); higher = higher reporter protein expression; conditions: HEK293T, ligand present: no
In short: (§1)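 Fluorescence is reported as a normalized fitted mean of sorted-bin read counts. Lentivirally transduced HEK293T libraries (mCherry ribozyme-switch reporter, EF1α-BFP marker) were enriched, treated with or without ligand for 48 h, and sorted into 6 mCherry/BFP bins for MiSeq sequencing of PCR-amplified genomic DNA. The normal fit was on log10(mCherry/BFP), scaled to five spiked-in control ribozymes.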

hypoxanthine [2] = variants of: B1; experiment: normalized RNA/DNA level with ligand (relative to sTRSVctl = 100) (log10 (% of sTRSVctl)); ligand: hypoxanthine (xanthine aptamer); higher = less ribozyme self-cleavage, higher mRNA level; conditions: ligand concentration (+) RNA-Seq: 5 mM, HEK293T, reporter: mCherry (pCS4076), ligand present: yes
In short: (§2)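 Library plasmids encoding reporter-linked ribozyme switches (mCherry, or eGFP for some folinic acid experiments) were transfected into HEK293T at 4 µg per 6-well well. Ligand, when used, was added 1 h before transfection. Total RNA was extracted with EDTA 72 h later, then reverse-transcribed, amplified, barcoded and sequenced. RNA level was RNA reads over DNA reads, divided by a spiked-in non-cleaving control (or the top 25 sequences), ×100, log10; only sequences with ≥100 DNA reads were kept.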

hypoxanthine [3] = variants of: B1; experiment: normalized RNA/DNA level without ligand (relative to sTRSVctl = 100) (log10 (% of sTRSVctl)); ligand: hypoxanthine (xanthine aptamer); higher = less ribozyme self-cleavage, higher mRNA level; conditions: HEK293T, reporter: mCherry (pCS4076), ligand present: no
In short: as §2

hypoxanthine [4] = variants of: B1; experiment: FACS-Seq fitted mean relative fluorescence mCherry/BFP with ligand (log10 relative fluorescence); ligand: hypoxanthine (xanthine aptamer); ligand concentration (+) FACS-Seq: 5 mM; higher = higher reporter protein expression; conditions: HEK293T, ligand present: yes
In short: as §1

| Variant | FACS-Seq fitted mean (log10) (hypoxanthine [1]) | normalized RNA/DNA level with ligand (log10) (hypoxanthine [2]) | normalized RNA/DNA level without ligand (log10) (hypoxanthine [3]) | FACS-Seq fitted mean (log10) (hypoxanthine [4]) |
| --- | --- | --- | --- | --- |
| AGGCCU | 0.421 ± 0.032 | 1.94 ± 0.022 | 1.97 ± 0.069 | 0.554 ± 0.071 |
| AGGCCA | 0.668 ± 0.014 | 1.96 ± 0.016 | 1.86 ± 0.023 | 0.607 ± 0.064 |
| GGGCUG | 0.228 ± 0.058 | 1.967 ± 0.0031 | 1.775 ± 0.0099 | 0.495 ± 0.026 |
| GGGCUA | 0.512 ± 0.024 | 2.01 ± 0.015 | 1.943 ± 0.015 | 0.456 ± 0.011 |
| GGGGGC | 0.564 ± 0.051 | 1.85 ± 0.06 | 1.51 ± 0.023 | 0.468 ± 0.037 |
| GGGGGU | 0.334 ± 0.062 | 1.935 ± 0.0072 | 1.86 ± 0.02 | 0.316 ± 0.064 |
| AGUCAU | 0.385 ± 0.052 | 1.92 ± 0.0085 | 1.79 ± 0.023 | 0.509 ± 0.025 |
| CGGUGU | 0.576 ± 0.076 | 1.965 ± 0.011 | 1.85 ± 0.031 | 0.586 ± 0.029 |
| AGGUCG | 0.151 ± 0.023 | 1.861 ± 0.0041 | 1.53 ± 0.092 | 0.463 ± 0.049 |
| AGGUCA | 0.881 ± 0.045 | 1.94 ± 0.071 | 1.68 ± 0.052 | 0.729 ± 0.035 |
| CGGGUU | -0.0176 ± 0.018 | 1.99 ± 0.027 | 1.89 ± 0.044 | -0.176 ± 0.051 |
| CGGGUA | 0.436 ± 0.033 | 1.94 ± 0.044 | 1.82 ± 0.068 | 0.64 ± 0.015 |
| CGGUAU | 0.0356 ± 0.0062 | 1.79 ± 0.05 | 1.41 ± 0.016 | 0.468 ± 0.05 |
| CGGUAA | 0.258 ± 0.03 | 1.814 ± 0.002 | 1.27 ± 0.058 | 0.537 ± 0.027 |
| CGGUAG | 0.498 ± 0.066 | 1.9 ± 0.036 | 1.61 ± 0.029 | 0.506 ± 0.0093 |
| GGGGUA | 0.00434 ± 0.0088 | 1.94 ± 0.064 | 1.837 ± 0.0033 | 0.179 ± 0.094 |
| CGGACA | 0.518 ± 0.098 | 1.9 ± 0.068 | 1.66 ± 0.037 | 0.612 ± 0.016 |
| GGGUGC | 0.296 ± 0.1 | 1.9 ± 0.036 | 1.52 ± 0.017 | 0.348 ± 0.011 |

| Variant | FACS-Seq fitted mean (log10) (hypoxanthine [1]) | normalized RNA/DNA level with ligand (log10) (hypoxanthine [2]) | normalized RNA/DNA level without ligand (log10) (hypoxanthine [3]) | FACS-Seq fitted mean (log10) (hypoxanthine [4]) |
| --- | --- | --- | --- | --- |
| GGGUGG | -0.2387 ± 0.0022 | 1.91 ± 0.046 | 1.54 ± 0.05 | 0.3262 ± 0.0019 |
| GGGUGA | 0.0881 ± 0.05 | 1.95 ± 0.033 | 1.71 ± 0.031 | 0.487 ± 0.0065 |
| CGGGCU | 0.773 ± 0.061 | 1.946 ± 0.019 | 1.954 ± 0.0037 | 0.578 ± 0.023 |
| CGGAUU | -0.13 ± 0.0099 | 1.94 ± 0.045 | 1.744 ± 0.0072 | 0.244 ± 0.014 |
| UGGCUG | 0.218 ± 0.011 | 2.02 ± 0.0097 | 1.95 ± 0.04 | 0.298 ± 0.023 |
| UGGCUU | 0.674 ± 0.017 | 1.97 ± 0.02 | 1.94 ± 0.03 | 0.66 ± 0.06 |
| AGGUUG | 0.0275 ± 0.013 | 1.88 ± 0.021 | 1.48 ± 0.042 | 0.557 ± 0.036 |
| GGGCCA | 0.693 ± 0.015 | 1.9809 ± 0.00094 | 1.99 ± 0.032 | 0.808 ± 0.082 |
| GGGCCG | -0.0164 ± 0.068 | 1.98 ± 0.05 | 1.923 ± 0.0046 | 0.175 ± 0.031 |
| GGGAAG | -0.183 ± 0.0054 | 1.64 ± 0.023 | 1.18 ± 0.014 | 0.325 ± 0.0034 |
| GGGAAU | 0.489 ± 0.043 | 1.93 ± 0.045 | 1.64 ± 0.021 | 0.654 ± 0.069 |
| GGGAAA | 0.227 ± 0.0031 | 1.867 ± 0.0029 | 1.57 ± 0.028 | 0.428 ± 0.03 |
| GGGAUG | 0.0328 ± 0.0034 | 1.79 ± 0.043 | 1.323 ± 0.0058 | 0.564 ± 0.02 |
| AGGGAA | 0.524 ± 0.1 | 1.86 ± 0.025 | 1.68 ± 0.045 | 0.684 ± 0.034 |
| AGGGAC | 0.0327 ± 0.041 | 1.916 ± 0.017 | 1.7 ± 0.018 | -0.137 ± 0.14 |
| AGGGAG | -0.123 ± 0.041 | 1.78 ± 0.086 | 1.4 ± 0.042 | 0.0991 ± 0.022 |
| GGUAAG | 0.176 ± 0.027 | 1.744 ± 0.013 | 1.25 ± 0.054 | 0.6778 ± 0.0029 |
| GGUAAA | 0.652 ± 0.01 | 1.9 ± 0.022 | 1.69 ± 0.007 | 0.581 ± 0.029 |
